The record followed here is patent US20260297200.

The target in this assay is EGFR-His (human ECD) (human). The assay can be described thus: BLI. In general terms: In BLI a coated tip is dipped into the sample, and binding shifts an interference pattern.

By Kd is commonly meant the concentration at which binding is half-saturated. Substance Cetuximab Fab-His yielded a Kd of 1.69 nM.
